Reference: patent US10689651B2, “Method of inhibiting macrophage activation using an inhibitor of PARP9” (THE BRIGHAM AND WOMEN'S HOSPITAL, INC., priority 2013, dated 2020)
“Also recorded” adds a separate entry of the source.

Target: T1, PARP14 (Homo sapiens, UniProt Q460N5)
T1 construct: purchased BPS Bioscience Inc
Assay: Ribosylation assay: PARP14-mediated ADP-ribosylation of STAT1α
Format: biochemical
Settings: recombinant proteins; for PARP14-induced mono ADP-ribosylation at Glu657 and Glu705 of STAT1α: LC-MS/MS, MS1 AUC quantification
From the text: The high resolution/accuracy LTQ-Orbitrap Elite (Thermo Scientific) analyzed TMT peptide samples and the Q Exactive (Thermo Scientific) analyzed in vitro ribosylated peptides. Both mass spectrometers are fronted with a Nanospray FLEX ion source, and coupled to an Easy-nLC1000 HPLC pump (Thermo Scientific). The peptides were subjected to a dual column set-up: an Acclaim PepMap RSLC C18 trap column, 75 um×20 cm (50 um×15 cm on the Q Exactive); and an Acclaim PepMap RSLC C18 analytical column 75 um×250 mm (Thermo Scientific). For TMT analysis the analytical gradient was run at 250 nl/min from 10 to 30% Solvent B (acetonitrile/0.1% formic acid) for 90 minutes, followed by five minutes of 95% Solvent B. Solvent A was 0.1% formic acid. For ribosylated peptides the gradient was run at 250 nl/min from 5 to 28% Solvent B for 30 minutes, followed by five minutes of 95% Solvent B. All reagents were HPLC-grade. […] Unmodified forms were calculated by subtracting the mass of the ADP-ribose (541. 06 Da) from the observed precursor. Modified and unmodified m/z values and corresponding retention time windows were submitted to an inclusion list and analyzed in using the data-independent acquisition module of the Q Exactive (R=35 K).
Recombinant human PARP14 and PARP9 (BPS Bioscience Inc.) proteins, and BSA (Sigma-Aldrich) were incubated with recombinant human STAT1α (OriGene Technologies, Inc.) or STAT6 protein (Sino Biological Inc.) at a final concentration of 5 ng/μl in the presence of 100 μM β-Nicotinamide adenine dinucleotide hydrate (NAD; Sigma-Aldrich) or 6-biotin-17-NAD (Trevigen, Inc.) in 50 mM Tris-HCl buffer (pH 7.4) for 1 hour at room temperature. Ribosylation of STAT1α and STAT6 was detected by LC-MS/MS after trypsin digestion or Western blotting using Streptavidin-HRP (Abcam) after SDS-PAGE. Quantification of the relative abundances of ribosylated STAT1α peptides was completed by calculating the area under the curve (AUC) of the extracted ion chromatograms (XICs) of the monoisotopic peaks of the modified versus unmodified peptides. […]

T1 sequence (Q460N5 whole entry): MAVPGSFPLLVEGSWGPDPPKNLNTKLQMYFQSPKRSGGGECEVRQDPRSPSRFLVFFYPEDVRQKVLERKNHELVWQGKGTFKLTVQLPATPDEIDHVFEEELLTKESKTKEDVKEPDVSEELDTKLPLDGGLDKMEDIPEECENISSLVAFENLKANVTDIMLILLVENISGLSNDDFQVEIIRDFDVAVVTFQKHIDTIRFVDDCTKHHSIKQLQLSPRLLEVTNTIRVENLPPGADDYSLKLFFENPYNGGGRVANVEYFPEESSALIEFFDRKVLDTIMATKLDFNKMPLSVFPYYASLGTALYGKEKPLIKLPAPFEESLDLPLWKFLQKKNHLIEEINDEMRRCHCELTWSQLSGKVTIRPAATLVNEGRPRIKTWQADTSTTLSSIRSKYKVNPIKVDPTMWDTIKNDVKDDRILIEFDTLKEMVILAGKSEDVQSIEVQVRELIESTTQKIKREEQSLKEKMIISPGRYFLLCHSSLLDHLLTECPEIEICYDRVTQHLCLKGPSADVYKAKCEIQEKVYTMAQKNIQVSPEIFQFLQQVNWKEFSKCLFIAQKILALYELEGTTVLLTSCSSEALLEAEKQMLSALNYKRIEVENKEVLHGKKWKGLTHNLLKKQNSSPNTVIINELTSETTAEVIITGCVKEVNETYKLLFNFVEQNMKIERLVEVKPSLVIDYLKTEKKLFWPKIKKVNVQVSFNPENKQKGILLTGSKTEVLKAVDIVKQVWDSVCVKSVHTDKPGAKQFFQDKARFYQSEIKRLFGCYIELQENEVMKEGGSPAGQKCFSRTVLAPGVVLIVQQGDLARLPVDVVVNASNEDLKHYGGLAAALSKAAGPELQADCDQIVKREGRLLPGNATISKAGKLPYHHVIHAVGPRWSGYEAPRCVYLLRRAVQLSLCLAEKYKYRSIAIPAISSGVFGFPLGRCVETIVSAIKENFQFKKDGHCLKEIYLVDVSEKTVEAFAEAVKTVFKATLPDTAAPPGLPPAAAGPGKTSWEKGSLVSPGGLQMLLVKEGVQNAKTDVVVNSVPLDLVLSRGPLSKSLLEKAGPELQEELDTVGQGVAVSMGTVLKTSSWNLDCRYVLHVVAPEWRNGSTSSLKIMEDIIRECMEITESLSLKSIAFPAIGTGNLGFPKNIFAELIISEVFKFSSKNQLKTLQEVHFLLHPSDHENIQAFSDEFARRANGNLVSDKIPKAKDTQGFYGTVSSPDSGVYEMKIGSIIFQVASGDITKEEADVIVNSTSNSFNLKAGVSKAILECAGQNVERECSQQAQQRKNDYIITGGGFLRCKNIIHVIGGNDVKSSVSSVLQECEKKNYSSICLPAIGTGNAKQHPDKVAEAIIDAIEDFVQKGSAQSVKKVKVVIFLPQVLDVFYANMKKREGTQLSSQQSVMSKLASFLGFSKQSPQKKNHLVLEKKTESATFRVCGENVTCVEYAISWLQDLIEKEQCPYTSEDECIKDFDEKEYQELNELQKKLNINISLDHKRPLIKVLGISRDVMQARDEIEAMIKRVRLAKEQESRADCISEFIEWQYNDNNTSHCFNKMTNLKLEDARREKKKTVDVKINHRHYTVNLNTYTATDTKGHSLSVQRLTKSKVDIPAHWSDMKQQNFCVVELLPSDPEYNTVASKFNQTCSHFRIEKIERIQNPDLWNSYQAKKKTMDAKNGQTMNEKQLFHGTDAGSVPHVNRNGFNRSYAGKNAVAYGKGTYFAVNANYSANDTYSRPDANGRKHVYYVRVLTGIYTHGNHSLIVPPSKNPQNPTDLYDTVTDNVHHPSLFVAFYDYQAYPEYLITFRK

- PARP14-induced mono ADP-ribosylation at Glu657 and Glu705 of STAT1α: inhibited
- PARP14-induced mono ADP-ribosylation at Glu657 and Glu705 of STAT1α (listed as PARP9): inhibition
- ADP-ribosylation of STAT1α by PARP14 (protein ribosylation assay (Western blot)): suppressed; also recorded: inhibits
Substance: recombinant PARP9: Recombinant human PARP9 protein (BPS Bioscience Inc.) added to the PARP14 ribosylation assay
